Test results from patent US20180112003A1 (UNIVERSITY OF SOUTHERN CALIFORNIA, published 2018).

Assays:
[1] = target: T1, human luteinizing hormone receptor (LHR) (human, UniProt P22888 27-699); test: flow cytometry screen of LHR-Fc ELISA positive hybridomas on ES-2 ovarian carcinoma cells; ratio of antibody MFI to isotype MFI
T1 construct: Endogenous LHR on human ovarian carcinoma cell lines (ES-2, SKOV3); also called LHR on ES-2 human ovarian carcinoma cells; LHR on SKOV3 cells
From the text: (§1) Antibodies against the […] extracellular hormone binding domain of LHR were generated by repeated immunization of 4 week-old-BALB/c and NIH Swiss mice with genetically engineered LHR-Fc. As shown below in FIG. 3, the leader sequence and first part of the human LHR G-protein was used to generate the LHR-Fc used in the immunization and screening methods to generate and identify high binding antibodies. […] A typical flow cytometry screen of hybridomas positive by initial ELISA screen using LHR-Fc coated plates is shown below in FIG. 4 using the ES-2 ovarian carcinoma cell line. […] These few candidate hybridomas were then subcloned by dilution in 96 well plates and expanded for freezing in vials. After further screening by flow cytometry, specific subclones were selected for large scale production using 2L vessels (GRrex, 100L, Wolfson). Filtered supernatants were then subjected to antibody purification using tandon protein A or G and ion exchange chromatography methods performed routinely in the laboratory. Once purified, five antibody subclones designated 8B7-3, 5F4-21, 5B1-1, 2H11-37, and 138-2 were sequenced to facilitate the engineering of single chain genes used for the construction of LHR CARs described below.

[2] = target: T1, human luteinizing hormone receptor (LHR); test: flow cytometry on ES-2 human ovarian carcinoma cells; ratio of antibody MFI to isotype MFI
From the text: as §1

T1 sequence (P22888 27-699 limits assumed): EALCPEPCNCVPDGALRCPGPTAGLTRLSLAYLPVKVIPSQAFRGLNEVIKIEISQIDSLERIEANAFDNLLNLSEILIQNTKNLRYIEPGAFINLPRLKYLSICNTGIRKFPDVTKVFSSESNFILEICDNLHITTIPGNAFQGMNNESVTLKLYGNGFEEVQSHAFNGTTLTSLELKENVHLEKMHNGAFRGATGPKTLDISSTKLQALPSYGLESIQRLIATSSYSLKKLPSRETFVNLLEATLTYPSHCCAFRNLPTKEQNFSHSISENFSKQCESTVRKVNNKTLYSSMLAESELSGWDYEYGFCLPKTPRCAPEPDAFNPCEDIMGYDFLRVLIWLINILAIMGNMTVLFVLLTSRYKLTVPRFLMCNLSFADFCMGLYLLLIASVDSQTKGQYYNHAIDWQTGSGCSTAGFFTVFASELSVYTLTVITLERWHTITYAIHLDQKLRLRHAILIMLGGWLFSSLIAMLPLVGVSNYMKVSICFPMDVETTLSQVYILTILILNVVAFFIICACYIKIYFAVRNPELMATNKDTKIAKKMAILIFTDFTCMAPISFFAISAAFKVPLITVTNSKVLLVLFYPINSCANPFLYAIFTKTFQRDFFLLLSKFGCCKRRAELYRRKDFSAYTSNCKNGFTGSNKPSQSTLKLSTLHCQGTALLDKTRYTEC

B1: LHR Antibody #8B7-3 (antibody, V domains shown)
VH: QVKLQQSGPELVKPGASVKISCKASGYSFTGYYMHWVKQSHGNILDWIGYIYPYNGVSSYNQKFKGKATLTVDKSSSTAYMELRSLTSEDSAVYYCARERGLYQLRAMDYWGQGTSVTVSS
VL: DIVLTQTPATLSVTPGDSVSLSCRASQSISNNLHWYQQKSHESPRLLIKNASQSISGIPSKFSGSGSGTDFTLRINSVETEDFGMYFCQQSNSWPYTFGSGTKLEIK
notes: Mouse monoclonal antibody from a hybridoma; also called hybridoma 8B7
- binding result [1]: binds

B2: LHR Antibody #5F4-21 (antibody, V domains shown)
VH: EVQLQESGPDLVKPSQSLSLTCTVTGYSITSGYGWHWIRQFPGNKLEWMGYIHYSGSTTYNPSLKSRISISRDTSKNQFFLQLNSVTTEDTATYYCARSLRYWGQGTTLTVSS
VL: DIVMTQTPAIMSASPGQKVTITCSASSSVNYMHWYQQKLGSSPKLWIYDTSKLAPGVPARFSGSGSGTSYSLTISSMEAEDAASYFCHQWSSYPYTFGSGTKLEIK
notes: Mouse monoclonal antibody from a hybridoma subclone
- binding result [2]: binds
